# According to patent publication US20190367631A1 (Regeneron, published 2019):
# Substitutions are numbered along the chain they refer to. Names and notes keep the numbering of the source.
# T1: human MSR1 extracellular domain expressed with a N-terminal nonahistidine tag (His9-hMSR1); R&D Systems, Cat … (human, UniProt P21757 77-451)
# T1 construct: extracellular domain; Bought reagent; also called His-hMSR1; 9xHis-hMSR1
# T1 sequence: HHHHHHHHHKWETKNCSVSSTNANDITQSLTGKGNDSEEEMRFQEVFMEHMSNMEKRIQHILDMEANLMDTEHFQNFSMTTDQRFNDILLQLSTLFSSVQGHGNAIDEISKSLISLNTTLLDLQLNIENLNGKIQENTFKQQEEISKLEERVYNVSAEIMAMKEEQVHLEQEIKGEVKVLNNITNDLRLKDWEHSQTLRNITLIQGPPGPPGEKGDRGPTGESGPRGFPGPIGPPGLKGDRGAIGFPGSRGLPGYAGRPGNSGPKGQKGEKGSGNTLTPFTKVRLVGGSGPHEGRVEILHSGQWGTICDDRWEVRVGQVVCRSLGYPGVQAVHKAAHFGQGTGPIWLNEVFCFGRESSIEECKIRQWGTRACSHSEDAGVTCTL
# T2: mouse MSR1 on RAW264.7 cells (mouse, UniProt P30204 1-458)
# T2 construct: whole, on cells; also called MSR1 positive RAW264.7 cells
# T2 sequence (looked up): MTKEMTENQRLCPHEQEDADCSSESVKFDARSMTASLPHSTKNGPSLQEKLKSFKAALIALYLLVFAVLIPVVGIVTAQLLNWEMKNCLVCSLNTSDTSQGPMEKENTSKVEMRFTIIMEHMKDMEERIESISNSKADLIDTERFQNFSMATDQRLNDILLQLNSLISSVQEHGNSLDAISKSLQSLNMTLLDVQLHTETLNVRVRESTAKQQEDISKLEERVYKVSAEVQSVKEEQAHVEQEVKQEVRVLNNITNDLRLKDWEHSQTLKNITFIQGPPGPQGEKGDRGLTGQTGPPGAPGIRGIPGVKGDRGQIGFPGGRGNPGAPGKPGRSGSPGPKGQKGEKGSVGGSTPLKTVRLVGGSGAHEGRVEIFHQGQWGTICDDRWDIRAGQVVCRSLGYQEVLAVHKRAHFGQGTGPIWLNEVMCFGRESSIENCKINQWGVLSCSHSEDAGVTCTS
# T3: human MSR1 extracellular domain expressed with a N-terminal nonahistidine tag (human, UniProt P21757 77-451)
# T3 construct: extracellular domain; also called His9-hMSR1; His-hMSR1
# T3 sequence: T1 sequence
# T4: full length human MSR1 with a C-terminal Myc tag, on HEK293.Myc.hMSR1 cells (human, UniProt P21757 1-451)
# T4 sequence (looked up): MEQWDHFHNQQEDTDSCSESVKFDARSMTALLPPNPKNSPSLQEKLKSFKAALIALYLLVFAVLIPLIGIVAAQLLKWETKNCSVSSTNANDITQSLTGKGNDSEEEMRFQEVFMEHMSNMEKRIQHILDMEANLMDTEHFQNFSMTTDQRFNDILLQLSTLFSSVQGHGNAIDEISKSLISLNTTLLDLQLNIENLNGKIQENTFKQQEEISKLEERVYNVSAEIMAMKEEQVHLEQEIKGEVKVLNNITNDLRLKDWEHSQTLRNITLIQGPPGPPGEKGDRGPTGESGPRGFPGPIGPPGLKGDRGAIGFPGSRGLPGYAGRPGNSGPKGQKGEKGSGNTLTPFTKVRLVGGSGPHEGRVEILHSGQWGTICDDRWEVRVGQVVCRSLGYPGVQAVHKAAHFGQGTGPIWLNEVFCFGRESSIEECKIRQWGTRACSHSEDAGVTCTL
# B1: H1H27732P-N297Q (antibody, human IgG1, V domains shown)
# VH: QLQLQESGPGLVKPSETLSLTCTVSGGSISSSTYYWGWIRQPPGKGLEWIGSFYYSGSTYYNPSLKSRVTISVGTSKNQFSLKLSSVTAADTAVYFCARGGLLGRPFVIWGQGTMVTVSS
# VL: DIQMTQSPSSLSASVGDRVTITCRASQGIRNDLGWYQQKPGKAPKRLIYAASSLQSGVPSRFSGSGSGTEFTLTISSLQPEDFATYYCLQHNSYPLTFGGGTKVEIKR
# notes: human IgG1 Fc with N297Q (EU)
# B2: H1H27731P-N297Q-LP1 (antibody, V domains shown)
# VH: QLQLQESGPGLVKPSETLSLTCTVSGGSISRISYYWGWIRQPPGKGLEWIGSIYDSGSTYYNPSLKSRVTISIDTSKNQFSLKLSSVTAADTAVYYCVRYSSSSAFAFDYWGQGTLVTVSS
# VL: DIQMTQSPSSVSASVGDRVTITCRASQGISSWLAWYQQKPGKAPKLLIYAASSLQSGVPSRFSGSGSGTDFTLTISSLQPEDFATYYCQQANSFPFTFGPGTKVDIKR
# modifications: LXR agonist linker-payload LP1 clicked to azido-PEG3-amine on Q295 and Q297 (EU) of the heavy chain constant region
# notes: antibody-drug conjugate; human IgG1 Fc with N297Q (EU); also called H1H27731P-LP1
# B3: H1H27756P-N297Q (antibody, human IgG1, V domains shown)
# VH: QVQLVESGGGVVQPGRSLRLSCAASGFTFSNYDMHWVRQAPGKGLEWMAVISYDGINKYYADSVKGRFTISRDNSKNTLYLQMNSLRAEDTAVYYCAKGTYSWYFDLWGRGTLVTVSS
# VL: not shown
# notes: human IgG1 Fc with N297Q
# B4: H1H27732P-N297Q (antibody, human IgG1, V domains shown)
# VH: B1 VH
# VL: B1 VL
# notes: human IgG1 Fc with N297Q
# B5: H1H21231N-N297Q (antibody, human IgG1, V domains shown)
# VH: EVQLVESGGGLVQPGGSLRLSCAASGFTFSDHYMDWVRQAPGKGLEWVGRTRNKANSHTTEYTASVTGRFTISRDDSRNSLYLQMNSLKTEDTAVYYCVRAGIIGTLFDYWGQGTLVTVSS
# VL: DIQMTQFPSSLSASVGDRVTITCRASQSISSFLNWFQQKPGKAPKFLIYAASSLQSGVPSRFSGSGSGTDFTLTISSLQPEDFATYYCQQSYSSPPITFGQGTRLEIKR
# notes: human IgG1 Fc with N297Q point mutation
# B6: H1H27760P2-N297Q (antibody, human IgG1, V domains shown)
# VH: EVQLVESGGGLVQPGRSLRLSCAASGFTFDAYAMHWVRQAPGKGLEWVSGISWNSGSIGYADSVKGRFTISRDNAKNSLYLQMNSLREEDTALYYCAKDKILELYYYGMDVWGQGTTVTVSS
# VL: not shown
# notes: human IgG1 Fc with N297Q; also called H1H27760P-N297Q
# B7: H1H27747P-N297Q (antibody, human IgG1, V domains shown)
# VH: QVQLVESGGAVVQPGRSLRLSCAASGFTFSYYGMHWVRQAPGKGLEWVAVISYDGSKKYYADSVKGRFTISRDNSKNTLYLQMNSLRAEDTAVYYCAKDLTVDFYYGMDVWGQGTTVTVSS
# VL: B2 VL with A51T, V58A, Y87F, F96Y, P100Q, V104L, D105E
# notes: human IgG1 Fc with N297Q
# B8: H1H27754P-N297Q (antibody, human IgG1, V domains shown)
# VH: EVQLVESGGGLVQPGGSLRLSCAASGFTFRTYAMTWVRQAPGKGLDWVSAITGDGGNTYYADSVKGRFTISRDNSKNTLYLQMNSLRAEDTAIYYCAKDQRFSFALYYFDYWGQGTLVTVSS
# VL: B2 VL with K42N, S52F, S93N, F96W, P100Q, D105E
# notes: human IgG1 Fc with N297Q
# B9: H1H27749P-N297Q (antibody, human IgG1, V domains shown)
# VH: QVQLQESGPGLVKPSETLSLTCTVSDGSISSYYWSWIRQPPGRGLEWIGFIYYSGSTSYNPSLKSRVTISVDTSMSQFSLKLRSVTAADTAVYYCARGSPFDYWGPGTLVTVSS
# VL: EIVLTQSPGTLSLSPGERATLSCRASQSVSSSYLAWYQQRPGQAPSLLISGASRRATGIPDRFSGSGSGTDFTLTIRRLEPEDFAMYYCQQYGSSPPTFGGGTKVEIKR
# notes: human IgG1 Fc with N297Q
# B10: H1H27771P2-N297Q (antibody, human IgG1, V domains shown)
# VH: EVQLVESGGGLVQPGGSLRLSCAASGFTFSSYGMNWVRQAPGKGLEWVSVISGSGGSTYYADSVKGRFTISRDNSKNTLYLQMNSLRAEDTAVYYCAKDRWTYYYDSSGSPFDYWGQGTLVTVSS
# VL: not shown
# notes: human IgG1 Fc with N297Q; also called H1H27771P-N297Q
# B11: H1H27778P2-N297Q (antibody, human IgG1, V domains shown)
# VH: EVQLVESGGGLEQPGGSLRLSCAASGFTFSSYAMSWVRQAPGKGLEWVSVISGSGGYTNYADSVKGRFTISRDNSKNTLYLQMNRLRAEDSAVYYCARHNWNYDYYGMDVWGQGTTVTVSS
# VL: not shown
# notes: human IgG1 Fc with N297Q; also called H1H27778P-N297Q
# B12: H1H27736P-N297Q (antibody, human IgG1, V domains shown)
# VH: EVQLVESGGGLVQPGGSLRLSCAASGFTFSSYAMSWVRQAPGKGLEWVSSISGSGDSTFYTDSVKGRFTISRDISKNTLYLQMNSLRAEDTAVYYCAKDRLLWFGDLISPFHYWGQGTLVTVSS
# VL: EIVLTQSPGTLSLSPGERATLSCRASQSVSNIYLAWYQQKPAQAPRLLIYGASSRATGIPDRFSVSGSGTDFTLTISRLEPEDFAVYYCQQYGSSPRTFGQGTKVEIKR
# notes: human IgG1 Fc with N297Q
# B13: H1H27773P2-N297Q (antibody, human IgG1, V domains shown)
# VH: EVQLVESGGGLVQPGGSLRLSCAASGFTFSSYAMNWVRQAPGKGLEWVSAISGSGDSTYYADSVKGRFTISRDNSRTTLSLQLNSLRAEDTAVYYCAKDRLLWFGELGSPFHYWGQGTLVTVSS
# VL: not shown
# notes: human IgG1 Fc with N297Q; also called H1H27773P-N297Q
# B14: H1H27778P2-N297Q (antibody, human IgG1, V domains shown)
# VH: B11 VH
# VL: not shown
# notes: Human IgG1 Fc with N297Q; also called H1H27778P-N297Q
# B15: H1H27771P2-N297Q (antibody, V domains shown)
# VH: B10 VH
# VL: not shown
# notes: Human IgG1 Fc with N297Q; also called H1H27771P-N297Q
# Molecular target: T1, human MSR1 extracellular domain …
# Test: SPR Biacore T200, 25 C, antibody captured by anti-human Fc, His9-hMSR1 injected; no dissociation seen, kd fixed at 1.00E-05;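 on kon: running buffer HBS-ET pH 7.4, rates from sensorgrams fitted to a 1:1 model including mass transport limitation, KD and half-life derived from the kinetic constants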
# Experimental: All binding studies were performed in 10 mM HEPES, 300 mM NaCl, 3 mM EDTA, and 0.05% v/v Surfactant Tween-20, pH 7.4 (HBS-ET) running buffer at 25° C.
# The association rate (kₐ) and dissociation rate (kd) were determined by fitting the real-time binding sensorgrams to a 1:1 binding model with mass transport limitation using Scrubber 2.0c curve-fitting software. Binding dissociation equilibrium constant (KD) and dissociative half-life (t½) were calculated from the kinetic rates as:
Binder,Kd [nM],t½ [h],koff [s⁻¹]
B1,≤ 0.045,≥ 19.3,
B2,≤ 0.078,≥ 19.3,≤ 1e-05

# Molecular target: T2, mouse MSR1 on RAW264.7 cells
# Test: flow cytometry, RAW264.7 cells
# Experimental: To block binding to Fc receptors, RAW264.7 cells were incubated for 30 minutes at 4° C. with 500 pg/mL mouse IgG (Jackson ImmunoResearch, Cat #015-000-003) diluted in staining buffer, while B16F10.9 cells remained in staining buffer. […] The signal to noise (S/N) was determined by calculating the ratio of the anti-MSR1 antibodies or the control antibodies MFI to the unstained sample MFI (Table 11).
Binder,MFI [MFI],S/N (MFI over unstained MFI)
B3,4570,1
B4,3420,1
B5,3580,1
B6,3430,1
B7,3630,1
B8,5410,1
B9,3790,1
B10,,1
B11,,1
B12,3550,1
B13,,1

# Molecular target: T1, human MSR1 extracellular domain …
# Test: SPR Biacore T200, 25 C, antibody captured by anti-human Fc, His9-hMSR1 injected;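 further: running buffer HBS-ET pH 7.4, rates from sensorgrams fitted to a 1:1 model including mass transport limitation, KD and half-life derived from the kinetic constants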
row,Binder,kon [M⁻¹ s⁻¹]
1,B2,128000

# Molecular target: T3, human MSR1 extracellular domain …
# Test: competition ELISA, plate-coated His9-hMSR1; 100 nM antibody, competitor ligand Ac-LDL
# Experimental: (§1) Buffer alone was also added to wells on each coat. […] This assay was conducted in four different assay runs.
# (§2) Data analysis was performed using a sigmoidal dose-response model within Prism™ software (GraphPad).
row,Binder,% Blocking [%]
1,B14,-40

# Molecular target: T4, full length human MSR1 with a …
# Test: cell-based or functional assay
Binder,% Inhibition of Dil-Acetylated LDL uptake [%],% Inhibition of Dil-Oxidized LDL uptake [%],IC50 of Dil-Acetylated LDL uptake inhibition [nM],IC50 of Dil-Oxidized LDL uptake inhibition [nM]
B3,42,76,> 100,
B4,62,86,,
B6,46,70,2.6,4.9

# Molecular target: T3, human MSR1 extracellular domain …
# Test: competition ELISA, plate-coated His9-hMSR1; 300 nM antibody, competitor ligand biot-AGE-BSA
# Experimental: as §1, §2
row,Binder,% Blocking [%]
1,B15,-1
2,B14,-8
